Assay results from US20170313746.
“Also recorded” adds a separate entry of the source.

Columns and labels:
[1] = biological target: T1, HILR-030 (cyclo-[Pro-Arg-Gly-Pro-Arg-Pro-Val-Trp-Trp-Gpa-Gpa-Trp-Trp-Gpa-Gpa-Trp-Trp])
T1 chain: PRGPRPVWWXXWWXXXW

Ac-DEVD-CHO = biological target: T2, Ac-DEVD-CHO
T2 chain: DEVD

B1: recombinant human caspase 3 enzyme (protein)
chain: SGISLDNSYKMDYPEMGLCIIINNKNFHKSTGMTSRSGTDVDAANLRETFRNLKYEVRNKNDLTREEIVELMRDVSKEDHSKRSSFVCVLLSHGEEGIIFGTNGPVDLKKITNFFRGDRCRSLTGKPKLFIIQACRGTELDCGIETDSGVDDDMACHKIPVEADFLYAYSTAPGYYSWRNSKDGSWFIQSLCAMLKQYADKLEFMHILTRVNRKVATEFESFSFDATFHAKKQIPCIVSMLTKELYFYH
caspase-3 activity (Apo-ONE Homogeneous Caspase-3/7 assay, cleavage of Z-DEVD-R110) [1]: inhibited the caspase-3 activity in a dose-dependent fashion | caspase-3 activity (Apo-ONE Homogeneous Caspase-3/7 assay, cleavage of Z-DEVD-R110) (Ac-DEVD-CHO): inhibited the activity of caspase-3 in a dose-dependent manner, giving rise to IC50s within the expected range; also recorded: inhibited the caspase-3 activity in a dose-dependent fashion
